Experimental data reported in the supplement of paper PMC9112550, “Optimization of the antimicrobial peptide Bac7 by deep mutational scanning” (BMC Biology, 2022).

test system: Escherichia coli TOP10; test: shrunken log2 fold change of peptide-encoding DNA abundance (4.5 h post-induction vs induction); higher = less antimicrobial activity (less host growth inhibition); details: time post-induction: 4.5 h; library: site-saturation at positions 5, 18, 19, 20
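Note: peptides expressed intracellularly from a pBAD plasmid library in pooled LB shake-flask culture, induced with 0.3% L-arabinose, DNA abundance read by NGS, three biological replicates, DESeq2 with apeglm shrinkage.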

Sequence | shrunken log2 fold change
RRIRVRPPRLPRPRPRPGIAPRP | 0.0106
RRIRVRPPRLPRPRPRPGIDPRP | -0.143
RRIRVRPPRLPRPRPRPGIPPRP | -0.103
RRIRVRPPRLPRPRPRPGKGPRP | 0.0187
RRIRVRPPRLPRPRPRPGKMPRP | -0.0672
RRIRVRPPRLPRPRPRPGKWPRP | -0.141
RRIRVRPPRLPRPRPRPGLGPRP | 0.134
RRIRVRPPRLPRPRPRPGLHPRP | -0.0936
RRIRVRPPRLPRPRPRPGLTPRP | -0.011
RRIRVRPPRLPRPRPRPGMLPRP | -0.333
RRIRVRPPRLPRPRPRPGMNPRP | -0.145
RRIRVRPPRLPRPRPRPGNFPRP | -0.131
RRIRVRPPRLPRPRPRPGNNPRP | -0.249
RRIRVRPPRLPRPRPRPGNRPRP | -0.0858
RRIRVRPPRLPRPRPRPGWKPRP | 0.169
RRIRVRPPRLPRPRPRPGYAPRP | 0.0532
RRIRVRPPRLPRPRPRPHARPRP | 0.0538
RRIRVRPPRLPRPRPRPHCKPRP | -0.299
RRIRVRPPRLPRPRPRPHDIPRP | 0.0663
RRIRVRPPRLPRPRPRPHEAPRP | 0.145
RRIRVRPPRLPRPRPRPHERPRP | -0.13
RRIRVRPPRLPRPRPRPHFEPRP | 0.193
RRIRVRPPRLPRPRPRPHGMPRP | -0.582
RRIRVRPPRLPRPRPRPHHFPRP | -0.114
RRIRVRPPRLPRPRPRPHICPRP | -0.18

Sequence | shrunken log2 fold change
RRIRVRPPRLPRPRPRPHLPPRP | -0.0222
RRIRVRPPRLPRPRPRPHMLPRP | -0.311
RRIRVRPPRLPRPRPRPHNEPRP | -0.811
RRIRVRPPRLPRPRPRPHNLPRP | -0.356
RRIRVRPPRLPRPRPRPHNWPRP | -0.0818
RRIRVRPPRLPRPRPRPHQEPRP | 0.113
RRIRVRPPRLPRPRPRPHQSPRP | -0.23
RRIRVRPPRLPRPRPRPHRQPRP | -0.384
RRIRVRPPRLPRPRPRPHVAPRP | -0.0516
RRIRVRPPRLPRPRPRPHWHPRP | -0.0411
RRIRVRPPRLPRPRPRPHYHPRP | -0.397
RRIRVRPPRLPRPRPRPIAAPRP | 0.454
RRIRVRPPRLPRPRPRPICTPRP | -0.00144
RRIRVRPPRLPRPRPRPIEAPRP | -0.00729
RRIRVRPPRLPRPRPRPIEYPRP | -0.05
RRIRVRPPRLPRPRPRPIFVPRP | -0.0998
RRIRVRPPRLPRPRPRPIGEPRP | 0.0407
RRIRVRPPRLPRPRPRPIGFPRP | 0.187
RRIRVRPPRLPRPRPRPIGVPRP | -0.01
RRIRVRPPRLPRPRPRPIHPPRP | 0.0943
RRIRVRPPRLPRPRPRPIHQPRP | -0.166
RRIRVRPPRLPRPRPRPIIEPRP | -0.087
RRIRVRPPRLPRPRPRPILPPRP | -0.331
RRIRVRPPRLPRPRPRPILQPRP | -0.399
RRIRVRPPRLPRPRPRPILWPRP | 0.0127

Sequence | shrunken log2 fold change
RRIRVRPPRLPRPRPRPIMRPRP | 0.0562
RRIRVRPPRLPRPRPRPINHPRP | -0.464
RRIRVRPPRLPRPRPRPINKPRP | -0.613
RRIRVRPPRLPRPRPRPIPPPRP | -0.2
RRIRVRPPRLPRPRPRPIQIPRP | -1.33
RRIRVRPPRLPRPRPRPIQPPRP | 0.0215
RRIRVRPPRLPRPRPRPIQSPRP | -0.177
RRIRVRPPRLPRPRPRPISLPRP | -0.0572
RRIRVRPPRLPRPRPRPISTPRP | -0.112
RRIRVRPPRLPRPRPRPITFPRP | -0.0498
RRIRVRPPRLPRPRPRPITLPRP | 1.44
RRIRVRPPRLPRPRPRPIVQPRP | -0.223
RRIRVRPPRLPRPRPRPIWEPRP | -0.00136
RRIRVRPPRLPRPRPRPIWWPRP | 1.44
RRIRVRPPRLPRPRPRPIYNPRP | -0.675
RRIRVRPPRLPRPRPRPKAEPRP | -0.00229
RRIRVRPPRLPRPRPRPKARPRP | 0.295
RRIRVRPPRLPRPRPRPKAWPRP | 0.0531
RRIRVRPPRLPRPRPRPKCYPRP | 0.0107
RRIRVRPPRLPRPRPRPKDMPRP | -0.272
RRIRVRPPRLPRPRPRPKEYPRP | -0.282
RRIRVRPPRLPRPRPRPKGDPRP | 0.275
RRIRVRPPRLPRPRPRPKGEPRP | -0.0112
RRIRVRPPRLPRPRPRPKGMPRP | 0.109
RRIRVRPPRLPRPRPRPKGQPRP | 0.147
